Tests used:
type 2 diabetic patients [1] = test: Premature treatment discontinuation, patient disposition (Example 1); conditions: human, in vivo
Source text: During the 24-week study treatment period, 11 (6.8%) combination-treated patients prematurely discontinued the IMP, compared with 3 (1.9%) insulin glargine-treated patients. For combination-treated patients, the most common reasons for treatment discontinuation was “adverse event” (6 patients [3.7%] versus 0 patient in the insulin glargine group) followed by “other reasons” (4 patients [2.5%] versus 2 patients [1.2%] in the insulin glargine group).

type 2 diabetic patients [2] = test: Symptomatic hypoglycemia (Example 1); type: in vivo, human; conditions: Safety population
Source text: Safety: Adverse events, serious adverse events, symptomatic hypoglycemia, vital signs, electrocardiogram (ECG), safety laboratory values.
Symptomatic hypoglycemia events were documented on a specific hypoglycemia event form, and not an AE CRF page, and thus were not included in the TEAE summaries.

type 2 diabetic patients [3] = test: 2-hour plasma glucose excursion during standardized meal test (Example 1); type: in vivo, human; conditions: mITT population; for 2-hour plasma glucose excursion change from baseline to Week 24 (LOCF), LS Mean (SE): ANCOVA
Source text: The diabetes type 2 patient may have a glucose excursion (in particular a 2-hour postprandial glucose excursion of at least 2 mmol/L, at least 3 mmol/L, at least 4 mmol/L, at least 5 mmol/L, at least 5.5 mmol/L, at least 6 mmol/L, at least 6.5 mmol/L, or at least 7 mmol/L at the onset of the treatment with the composition of the present invention. In the present invention, the glucose excursion is in particular the difference of the 2-hour postprandial plasma glucose concentration and the plasma glucose concentration 30 minutes prior to a meal test.
Criteria for Evaluation: • Efficacy: • Primary Endpoint: • Change in HbA1c from baseline to Week 24 • Secondary Endpoints: • Change in 2-hour PPG during meal test from baseline to Week 24 • Change in 2-hour plasma glucose excursion during meal test from baseline to Week 24 • Percentage of patients reaching HbA1c ≤6.5% or <7% at Week 24 • Change in 7-point SMPG profiles from baseline to Week 24 (each time point and mean daily value) • Change in body weight from baseline to Week 24, • Average daily Insulin glargine dose at Week 24 • Change in FPG from baseline to Week 24 • Percentage of patients requiring rescue therapy during the 24-week open-label treatment period • Change in 30-minute and 1-hour PPG and plasma glucose excursion during meal test from baseline to week 24 • Percentage of patients reaching HbA1c <7% at week 24 with no documented symptomatic hypoglycemia during the 24-week open label treatment period • Percentage of patients reaching HbA1c <7% with no weight gain at week 24
All continuous secondary efficacy endpoints were analyzed using a similar ANCOVA model with treatment, randomization strata of screening HbA1c (<8%, ≥8%), randomization strata of screening BMI (<30 kg/m^2, ≥30 kg/m^2) and country as fixed effects and using the baseline value of the corresponding parameter as a covariate. Insulin glargine dose was not included in the ANCOVA model as a covariate since patients enrolled were insulin-naïve.

Which results are given for “Gly(A21)-Arg(B31)-Arg(B32)-human insulin [Insulin Glargine]”?
Patients who prematurely discontinued the IMP (type 2 diabetic patients [1]): 3 (1.9%) n (%); Treatment discontinuation, reason adverse event (type 2 diabetic patients [1]): 0 n (%); Documented symptomatic hypoglycemia (plasma glucose <54 mg/dL [3.0 mmol/L]): Number of events (type 2 diabetic patients [2]): 10; Documented symptomatic hypoglycemia (plasma glucose <54 mg/dL [3.0 mmol/L]): Number of events per 100 patient years (type 2 diabetic patients [2]): 13.2 events per 100 patient years; Documented symptomatic hypoglycemia (plasma glucose <54 mg/dL [3.0 mmol/L]): Number of patients with events (type 2 diabetic patients [2]): 4 (2.5%) n (%); Documented symptomatic hypoglycemia (plasma glucose <60 mg/dL [3.3 mmol/L]): Number of events (type 2 diabetic patients [2]): 18; Documented symptomatic hypoglycemia (plasma glucose <60 mg/dL [3.3 mmol/L]): Number of events per 100 patient years (type 2 diabetic patients [2]): 23.8 events per 100 patient years; Documented symptomatic hypoglycemia (plasma glucose <60 mg/dL [3.3 mmol/L]): Number of patients with events (type 2 diabetic patients [2]): 9 (5.6%) n (%); Documented symptomatic hypoglycemia (plasma glucose <=70 mg/dL [3.9 mmol/L]): Number of events (type 2 diabetic patients [2]): 79; Documented symptomatic hypoglycemia (plasma glucose <=70 mg/dL [3.9 mmol/L]): Number of events per 100 patient years (type 2 diabetic patients [2]): 104.5 events per 100 patient years; Documented symptomatic hypoglycemia (plasma glucose <=70 mg/dL [3.9 mmol/L]): Number of patients with events (type 2 diabetic patients [2]): 37 (22.8%) n (%); Probable symptomatic hypoglycemia: Number of events (type 2 diabetic patients [2]): 5; Probable symptomatic hypoglycemia: Number of events per 100 patient years (type 2 diabetic patients [2]): 6.6 events per 100 patient years; Probable symptomatic hypoglycemia: Number of patients with events (type 2 diabetic patients [2]): 5 (3.1%) n (%); Severe symptomatic hypoglycemia: Number of events (type 2 diabetic patients [2]): 0; Severe symptomatic hypoglycemia: Number of events per 100 patient years (type 2 diabetic patients [2]): 0.0 events per 100 patient years; Severe symptomatic hypoglycemia: Number of patients with events (type 2 diabetic patients [2]): 0 n (%); Symptomatic hypoglycemia: Number of events per 100 patient years (type 2 diabetic patients [2]): 111.1 events per 100 patient years; Symptomatic hypoglycemia: Number of events (type 2 diabetic patients [2]; TEAE period): 84; Symptomatic hypoglycemia: Number of patients with events (type 2 diabetic patients [2]; documented, probable and severe, TEAE period): 40 (24.7%) n (%); 2-hour plasma glucose excursion at Week 24 (LOCF), Mean (SD) (type 2 diabetic patients [3]): 5.33 (2.79) mmol/L; 2-hour plasma glucose excursion at Week 24 (LOCF), Median (type 2 diabetic patients [3]): 5.05 mmol/L; 2-hour plasma glucose excursion change from baseline to Week 24 (LOCF), Mean (SD) (type 2 diabetic patients [3]): −0.61 (3.03) mmol/L; 2-hour plasma glucose excursion change from baseline to Week 24 (LOCF), Median (type 2 diabetic patients [3]): -0.75 mmol/L; 2-hour plasma glucose excursion change from baseline to Week 24 (LOCF), LS Mean (SE) (type 2 diabetic patients [3]): −0.67 (0.269) mmol/L; 2-hour plasma glucose excursion change from baseline to Week 24 (LOCF), LS Mean (SE) (type 2 diabetic patients [3]; listed as insulin glargine): -0.67 mmol/L
